Earlier results on three substances are cited in publication PMC5580235.

Where two headings read alike, the source gives them in different places.

For data set [1], the target named is ICAM-1 (Homo sapiens) (UniProt P05362).
For data set [2] the target is unchanged. The source holds these as a separate data set.
For data set [3] the target is unchanged. The source holds these as a separate data set.

Sequence of ICAM-1 (Homo sapiens) (P05362 28-480): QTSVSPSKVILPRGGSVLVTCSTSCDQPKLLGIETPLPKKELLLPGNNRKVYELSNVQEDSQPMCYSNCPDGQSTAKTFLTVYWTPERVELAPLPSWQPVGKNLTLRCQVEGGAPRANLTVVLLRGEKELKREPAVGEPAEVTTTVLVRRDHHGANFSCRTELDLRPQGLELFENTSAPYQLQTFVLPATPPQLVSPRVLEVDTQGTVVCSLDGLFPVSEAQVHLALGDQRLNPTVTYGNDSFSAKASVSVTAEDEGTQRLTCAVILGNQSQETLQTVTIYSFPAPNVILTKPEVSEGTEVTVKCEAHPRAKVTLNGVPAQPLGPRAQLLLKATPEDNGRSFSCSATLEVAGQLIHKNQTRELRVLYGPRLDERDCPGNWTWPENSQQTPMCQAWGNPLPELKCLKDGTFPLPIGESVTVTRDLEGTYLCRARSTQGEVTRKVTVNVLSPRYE
Sequence of LFA-1 (intermediate affinity form) (P20701 26-1090): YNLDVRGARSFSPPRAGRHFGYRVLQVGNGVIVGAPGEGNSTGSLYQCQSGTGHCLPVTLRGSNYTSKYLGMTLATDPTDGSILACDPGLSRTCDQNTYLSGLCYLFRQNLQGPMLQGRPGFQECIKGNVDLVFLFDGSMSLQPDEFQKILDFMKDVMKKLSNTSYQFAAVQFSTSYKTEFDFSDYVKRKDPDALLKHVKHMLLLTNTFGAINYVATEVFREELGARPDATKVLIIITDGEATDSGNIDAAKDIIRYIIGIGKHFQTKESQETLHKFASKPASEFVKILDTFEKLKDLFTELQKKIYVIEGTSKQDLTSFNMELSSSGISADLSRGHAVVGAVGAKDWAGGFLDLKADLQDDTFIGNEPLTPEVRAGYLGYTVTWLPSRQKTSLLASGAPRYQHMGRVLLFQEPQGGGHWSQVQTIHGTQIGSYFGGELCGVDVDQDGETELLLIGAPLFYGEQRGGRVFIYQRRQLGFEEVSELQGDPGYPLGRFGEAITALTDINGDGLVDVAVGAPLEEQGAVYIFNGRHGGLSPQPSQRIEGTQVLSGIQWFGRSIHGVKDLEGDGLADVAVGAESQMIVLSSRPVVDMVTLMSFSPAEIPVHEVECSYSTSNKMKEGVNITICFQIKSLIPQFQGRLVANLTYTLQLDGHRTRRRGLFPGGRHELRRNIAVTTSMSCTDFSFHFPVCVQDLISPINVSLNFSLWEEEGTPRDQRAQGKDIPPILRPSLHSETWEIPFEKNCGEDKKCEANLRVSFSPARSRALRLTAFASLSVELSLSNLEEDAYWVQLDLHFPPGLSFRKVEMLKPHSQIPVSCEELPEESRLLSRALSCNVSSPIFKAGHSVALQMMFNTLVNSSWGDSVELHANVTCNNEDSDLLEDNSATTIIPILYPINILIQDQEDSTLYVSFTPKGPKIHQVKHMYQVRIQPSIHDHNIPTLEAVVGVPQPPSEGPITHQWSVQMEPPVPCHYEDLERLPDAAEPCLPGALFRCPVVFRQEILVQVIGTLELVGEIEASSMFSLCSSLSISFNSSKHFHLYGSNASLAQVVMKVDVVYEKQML
Sequence of LFA-1 (intermediate affinity form) (P05107 23-700, further chain): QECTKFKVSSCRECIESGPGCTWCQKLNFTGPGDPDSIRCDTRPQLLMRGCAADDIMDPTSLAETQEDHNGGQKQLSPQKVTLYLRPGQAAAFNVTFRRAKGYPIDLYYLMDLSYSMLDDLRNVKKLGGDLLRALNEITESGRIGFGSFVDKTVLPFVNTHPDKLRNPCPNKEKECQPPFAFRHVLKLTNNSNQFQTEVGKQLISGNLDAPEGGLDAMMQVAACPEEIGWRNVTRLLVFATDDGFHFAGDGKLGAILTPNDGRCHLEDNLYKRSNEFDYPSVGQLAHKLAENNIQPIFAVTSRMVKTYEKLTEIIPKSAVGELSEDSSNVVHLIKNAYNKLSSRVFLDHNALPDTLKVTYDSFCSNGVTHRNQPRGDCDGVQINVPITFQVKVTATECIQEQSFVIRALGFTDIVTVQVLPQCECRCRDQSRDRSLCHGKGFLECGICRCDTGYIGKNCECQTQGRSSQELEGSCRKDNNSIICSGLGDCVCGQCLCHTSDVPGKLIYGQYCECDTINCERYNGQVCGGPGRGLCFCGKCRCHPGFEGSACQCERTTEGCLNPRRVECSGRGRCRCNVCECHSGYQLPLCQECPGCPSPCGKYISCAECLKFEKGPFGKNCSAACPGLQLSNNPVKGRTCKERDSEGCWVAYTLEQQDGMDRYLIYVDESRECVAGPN
Sequence of LFA-1 (high affinity form) (P20701 26-1090): as the sequence (P20701 26-1090) above
Sequence of LFA-1 (high affinity form) (P05107 23-700, further chain): as the sequence (P05107 23-700, further chain) above
Sequence of LFA-1 (low affinity form) (P20701 26-1090): as the sequence (P20701 26-1090) above
Sequence of LFA-1 (low affinity form) (P05107 23-700, further chain): as the sequence (P05107 23-700, further chain) above

In the case of “LFA-1 (intermediate affinity form) (from UniProt P20701)”, the Kd (usually the equilibrium constant for the complex coming apart) with ICAM-1 (Homo sapiens) [1] is 15 µM. Consider “LFA-1 (low affinity form) (from UniProt P20701)”, for which, in the data set with ICAM-1 (Homo sapiens) [2], the Kd is 1500 µM.

Consider “LFA-1 (high affinity form) (from UniProt P20701)”, for which the Kd with ICAM-1 (Homo sapiens) [3] was 0.15 µM.
